Measured values published in the MegaScale stability set (Tsuboyama et al. 2023).

B1: EEHEE_rd4_0003 (parent)
chain: KKVTINGVEIKFNNPEEAVKFALELAKRLNLRIEFHGDQIKIE

Variants of: B1
Experiment: folding stability dG (cDNA display proteolysis); higher = more stable
Details: PBS, room temperature

Folding stability dG [kcal/mol] of substitutions, site by site:
K11: V 2.96, D 2.3, G 2.28, W 3.53, S 2.72, Y 3.32, C 3.94, R 2.78, H 3.03, F 3.26, T 2.85, N 2.83, A 2.6, E 2.77, I 3, M 2.99, Q 2.72, P 2.22, L 3.02
E17: Y 2.56, Q 2.48, N 2.24, V 2.25, L 2.56, M 2.49, W 2.84, S 2.39, K 2.3, I 2.36, H 2.23, A 2.68, P 1.9, T 2.26, D 2.68, G 2.2, R 2.16, F 2.36, C 4.22
P15: D 2.46, W 3.67, K 2.47, Q 2.48, M 2.97, I 2.85, N 2.45, Y 3.14, H 2.84, C 3.65, S 2.77, V 2.67, L 2.9, F 3.12, A 2.78, R 2.79, T 2.74, G 2.53, E 2.52
N13: C 3.31, G 2.44, K 2.8, P 2.53, S 2.69, E 2.59, D 2.73, T 2.61, I 2.59, H 2.45, Q 2.54, F 2.54, M 2.66, A 2.8, L 2.72, W 2.6, R 2.84, V 2.46, Y 2.39
G7: W 2.54, L 2.42, Q 1.96, V 2.45, S 1.85, E 1.78, H 1.89, P 2.01, K 2.09, A 1.95, F 2.37, Y 2.23, C 3.05, I 2.84, M 2.2, D 1.89, R 1.87, T 1.98, N 2.11
K1: M 3.33, G 2.6, E 2.09, T 3.14, A 2.84, R 2.79, Q 2.5, D 2.23, L 3.15, S 2.83, P 2.75, Y 3.44, I 3.3, N 2.67, V 3.25, W 3.51, F 3.5, H 2.89
I10: E 1.36, M 2.36, V 2.22, A 1.65, W 2.55, N 1.5, T 1.78, L 2.6, G 1.21, D 1.28, Q 1.65, K 1.83, F 2.89, Y 2.99, H 2.49, S 1.6, C 3.45, R 1.88, P 1.19
E9: K 2.08, W 2.73, H 2.46, A 2.4, M 2.62, G 2.12, R 2.36, C 3.54, Y 2.58, P 2.3, F 2.53, T 2.98, I 2.85, N 2.19, S 2.58, L 2.78, V 2.94, Q 2.46, D 2.3
T4: M 2.74, D 1.7, E 1.98, I 3, G 1.61, F 3.25, Q 2.17, H 2.26, A 2.02, Y 3.11, N 2.21, S 2.38, V 2.94, W 3.01, L 2.95, R 2.18, C 3.48, K 2.29, P 1.76
K2: D 1.93, G 2.2, R 2.78, N 2.48, H 2.46, V 3.28, S 2.92, W 2.88, M 2.83, E 2.06, C 3.4, P 2.2, T 3.4, F 2.8, A 2.46, Q 2.36, I 3.41, L 2.84, Y 2.82
N14: A 2.25, F 2.64, Y 2.41, S 2.93, G 2.22, I 2.36, Q 2.06, V 2.36, K 2.35, E 1.86, T 3.02, P 2.4, W 2.39, M 2.38, H 2.37, D 2.56, R 2.44, L 2.56, C 2.98
V8: G 1.78, E 1.99, S 1.97, K 2.4, T 2.24, Q 2.25, P 1.6, D 1.65, M 2.51, F 2.71, I 2.74, C 3.55, W 2.75, Y 2.82, N 2, H 2.53, R 2.56, L 2.51, A 2.03
I5: C 3.46, T 1.59, R 1.58, N 1.47, Y 2.71, Q 1.66, H 1.93, M 2.07, L 2.39, E 1.56, K 1.54, S 1.46, W 2.83, V 2.47, P 1.79, D 1.54, A 1.71, F 2.8, G 1.72
F12: M 1.96, H 1.45, L 1.92, N 1.33, Y 1.89, R 1.41, T 1.7, D 0.955, C 3.25, I 1.9, K 1.09, V 1.86, E 0.907, G 1.55, P 1.14, W 2.14, S 1.57, A 1.48, Q 1.13
N6: R 2.25, F 3.23, Q 2.14, E 1.91, M 2.65, A 2.41, G 2.5, W 3.34, H 2.45, D 2.25, T 2.01, V 2.52, P 1.57, Y 2.75, K 2.17, S 2.11, I 2.41, L 2.87, C 4.2
V3: A 1.67, P 2.06, T 1.76, D 1.7, F 2.27, K 1.57, E 1.86, Q 1.59, R 1.95, L 2.39, N 1.7, S 1.46, M 2.12, W 2.29, G 1.85, I 2.48, Y 2.26, H 1.86
A18: F 2.79, M 2.47, N 1.75, K 1.52, E 1.47, L 2.59, D 1.41, G 2.01, Q 1.61, P 1.64, C 3.5, H 1.7, I 2.45
E16: C 3.56, G 2.48, Y 2.7, T 2.46, S 2.54, V 2.53, M 2.66, K 2.48, L 2.69, Q 2.6, F 2.69, A 2.61, R 2.6, W 2.99, P 2.08, I 2.59, H 2.47, D 2.53, N 2.43
